Molecular target: T1, synthesized human Aβ42 peptide (human, UniProt P05067 672-713)
T1 construct: also called Aβ peptide
Assay: ELISA
Details: one partner purified

B1: human PrP^C (transgene of TgHuPrP mice) (natural protein)
chain: not shown
  binding relative to mouse PrP^C, corrected for PrP expression: 177 ± 9.5%
